According to patent US20110300100A1 (CSL, published 2011):
Positions count from the first letter of the chain named. In names and notes the source's numbering stands. One block for each binder: values may come before it.

Key:
[1] = target: T1, wild-type murine IL-11Rα on stably transfected Ba/F3 cells (with co-receptor murine gp130) (murine, UniProt Q64385 24-432); assay: cell-based or functional assay
T1 sequence (looked up): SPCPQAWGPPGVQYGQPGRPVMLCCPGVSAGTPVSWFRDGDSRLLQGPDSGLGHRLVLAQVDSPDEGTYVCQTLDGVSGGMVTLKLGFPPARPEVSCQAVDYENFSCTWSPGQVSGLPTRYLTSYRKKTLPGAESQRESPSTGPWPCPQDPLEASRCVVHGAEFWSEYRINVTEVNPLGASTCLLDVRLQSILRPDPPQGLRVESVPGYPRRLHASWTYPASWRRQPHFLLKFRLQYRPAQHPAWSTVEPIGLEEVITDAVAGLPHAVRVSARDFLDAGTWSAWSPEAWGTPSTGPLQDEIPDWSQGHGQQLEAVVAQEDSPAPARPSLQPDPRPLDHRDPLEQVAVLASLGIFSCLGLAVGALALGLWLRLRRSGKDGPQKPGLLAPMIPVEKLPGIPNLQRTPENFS

mIL-11Rα-Fc [2] = target: T2, mIL-11Rα-Fc (murine, UniProt Q64385 24-372); assay: competition ELISA, soluble protein against phage displayed IL-11 variants on coated mIL-11Rα-Fc
T2 construct: Coated on the ELISA plates; not shown: Fc part of the bought fusion protein
T2 sequence (looked up): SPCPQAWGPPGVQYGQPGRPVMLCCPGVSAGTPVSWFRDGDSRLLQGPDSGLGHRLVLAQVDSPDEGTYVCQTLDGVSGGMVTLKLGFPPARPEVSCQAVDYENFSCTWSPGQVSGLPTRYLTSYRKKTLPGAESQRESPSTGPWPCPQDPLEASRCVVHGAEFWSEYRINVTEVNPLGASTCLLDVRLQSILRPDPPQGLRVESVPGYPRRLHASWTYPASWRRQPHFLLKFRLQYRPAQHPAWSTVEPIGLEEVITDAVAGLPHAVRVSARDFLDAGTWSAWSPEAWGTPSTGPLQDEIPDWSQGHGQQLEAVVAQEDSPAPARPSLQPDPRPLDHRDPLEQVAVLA
Protocol: The affinity of the selected IL-11 mutants for IL-11Rα was determined in a competition ELISA experiment. […] After incubation for 2 hours at room temperature, the plates were washed and bound phage were then labeled with an anti-M13 polyclonal antibody conjugated to horseradish peroxidase. After the removal of excess antibody by washing with PBS containing 0.05% Tween 20, TMB substrate was added to each well and incubated for 10 minutes before the reaction was quenched by the addition of 2M phosphoric acid. Absorbance at 450 nm was then determined for each well by analysis on a microtitre plate reader.
Clear differences were observed between the affinities of the mIL-11-W147A and mutant proteins for binding to IL-11Rα-Fc.

mIL-11Rα-Fc [3] = target: T2, mIL-11Rα-Fc; assay: IL-11Rα binding ELISA
[4] = target: T1, wild-type murine IL-11Rα on stably …; assay: cell-based or functional assay; remark: listed apart in the source

B1: IL-11 mutant 1B.382 (murine FMQIQ and W147A IL-11 mutein), N-terminal hexahistidine-tagged (ligand)
chain: PGPPAGSPRVSSDPRADLDSAVLLTRSLLADTRQLAAQMRDKFPADGDHSLDSLPTLFMQIQTLGSLQLPGVLTRLRVDLMSYLRHVQWLRRAGGPSLKTLEPELGALQARLERLLRRLQLLMSRLALPQAAPDQPVIPLGPPASAAGSIRAAHAILGGLHLTLDWAVRGLLLLKTRL
notes: Mutein of mature murine IL-11 with FMQIQ at 58-62 and W147A; also called clone 1B.382; not shown: N-terminal hexahistidine tag from the modified pET15b vector
IC50 (nM), inhibition of IL-11-induced proliferation of IL-11Rα/gp130 Ba/F3 cells (MTT) [1]: 0.49 nM | fold higher affinity relative to W147A IL-11 (mIL-11Rα-Fc [2]): 20 fold

B2: IL-11 mutant 1.21 (murine PAIDY and W147A IL-11 mutein), N-terminal hexahistidine-tagged (ligand)
chain: B1 chain with F58P, M59A, Q60I, I61D, Q62Y
notes: Mutein of mature murine IL-11 with PAIDY at 58-62 and W147A; not shown: N-terminal hexahistidine tag from the modified pET15b vector
IC50 (nM), inhibition of IL-11-induced proliferation of IL-11Rα/gp130 Ba/F3 cells (MTT) [1]: 0.54 nM | fold higher affinity relative to W147A IL-11 (mIL-11Rα-Fc [2]): 20 fold

Further lines, results first:

IC50 (nM), inhibition of IL-11-induced proliferation of IL-11Rα/gp130 Ba/F3 cells (MTT) [1]: 14 nM
B3: mIL-11-W147A, N-terminal hexahistidine-tagged (ligand, not shown: small tags and cut ends)
chain: B1 chain with F58A, Q60S, I61A, Q62G

fold reduction of binding affinity relative to non-PEGylated 1.21 (mIL-11Rα-Fc [3]): ~5 fold | fold reduction of the ability to antagonize IL-11-induced Ba/F3 cell proliferation, relative to non-PEGylated 1.21 [4]: ~10 fold
B4: Δ1.21 (PEGylated and truncated modified form of clone 1.21, W147C, amino acids 10-178 of SEQ ID NO:12) (ligand)
chain: VSSDPRADLDSAVLLTRSLLADTRQLAAQMRDKFPADGDHSLDSLPTLPAIDYTLGSLQLPGVLTRLRVDLMSYLRHVQWLRRAGGPSLKTLEPELGALQARLERLLRRLQLLMSRLALPQAAPDQPVIPLGPPASACGSIRAAHAILGGLHLTLDWAVRGLLLLKTRL
modifications: 40 kDa mPEG2-maleimide on Cys147 (position corresponding to position 147 of SEQ ID NO:12)
notes: His-tag and first nine residues (which carried the optimized thrombin site, residues 6 and 7 to L and V) removed by thrombin; N-terminus Val10-Ser11-Ser12; also called PEGylated mutein; pegylated mouse IL-11 mutein Δ1.21
